These results are taken from patent publication US20260209316A1 (US Dept. of Health and Human Services, published 2026).

Assay [1] deals with T1, SUDV GP on pseudotyped lentiviral vector (Sudan virus (SUDV), UniProt Q7T9D9 33-676).
T1 sequence: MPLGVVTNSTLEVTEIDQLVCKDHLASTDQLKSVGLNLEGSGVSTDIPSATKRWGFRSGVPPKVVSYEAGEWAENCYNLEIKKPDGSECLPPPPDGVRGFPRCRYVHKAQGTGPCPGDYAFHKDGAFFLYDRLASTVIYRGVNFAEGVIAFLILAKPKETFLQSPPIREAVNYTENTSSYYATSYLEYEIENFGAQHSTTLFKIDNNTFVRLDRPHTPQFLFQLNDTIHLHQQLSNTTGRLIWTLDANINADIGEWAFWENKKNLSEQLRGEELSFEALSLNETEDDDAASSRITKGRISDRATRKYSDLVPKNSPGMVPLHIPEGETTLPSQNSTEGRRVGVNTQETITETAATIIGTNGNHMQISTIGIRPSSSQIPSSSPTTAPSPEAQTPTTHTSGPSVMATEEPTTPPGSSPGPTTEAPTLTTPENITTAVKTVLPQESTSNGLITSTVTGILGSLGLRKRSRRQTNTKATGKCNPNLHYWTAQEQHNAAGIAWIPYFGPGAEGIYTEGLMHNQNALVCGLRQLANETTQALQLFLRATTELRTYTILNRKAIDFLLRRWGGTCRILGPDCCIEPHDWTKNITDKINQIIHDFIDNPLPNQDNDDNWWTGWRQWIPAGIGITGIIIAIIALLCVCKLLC
The experiment in a line: cell-based or functional assay.

The target of assay [2] is T2, full-length Sudan GP (GPFL) (Sudan virus (SUDV), UniProt Q7T9D9 33-650).
T2 construct: also called Sudan GPFL; GP(S)FL
T2 sequence: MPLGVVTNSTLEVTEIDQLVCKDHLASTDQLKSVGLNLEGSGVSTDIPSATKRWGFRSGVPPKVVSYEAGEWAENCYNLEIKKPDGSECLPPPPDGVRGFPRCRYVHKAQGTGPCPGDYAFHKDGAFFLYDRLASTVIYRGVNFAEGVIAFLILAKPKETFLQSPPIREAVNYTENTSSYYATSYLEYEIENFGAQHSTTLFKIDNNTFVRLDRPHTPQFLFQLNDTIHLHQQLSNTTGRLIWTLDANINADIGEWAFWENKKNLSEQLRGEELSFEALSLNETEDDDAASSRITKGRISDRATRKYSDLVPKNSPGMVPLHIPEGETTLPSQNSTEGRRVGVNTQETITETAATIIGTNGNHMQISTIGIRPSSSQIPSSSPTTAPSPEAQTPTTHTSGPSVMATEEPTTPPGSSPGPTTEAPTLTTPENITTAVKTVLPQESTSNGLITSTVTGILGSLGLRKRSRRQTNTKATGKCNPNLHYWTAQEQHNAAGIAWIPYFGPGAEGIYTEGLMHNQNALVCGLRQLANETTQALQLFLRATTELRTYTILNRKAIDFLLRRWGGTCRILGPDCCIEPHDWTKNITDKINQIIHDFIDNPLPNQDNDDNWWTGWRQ
The experiment in a line: ELISA on coated GP.

Assay [3] deals with T2, full-length Sudan GP (GPFL). The experiment in a line: ELISA on coated GP. The source holds these as a separate data set.
The target in assay [4] is T3, full-length Zaire GP (GPFL) (Ebola (Zaire) virus (EBOV), UniProt Q05320 33-632).
T3 construct: also called Zaire GPFL; GP(Z)FL
T3 sequence: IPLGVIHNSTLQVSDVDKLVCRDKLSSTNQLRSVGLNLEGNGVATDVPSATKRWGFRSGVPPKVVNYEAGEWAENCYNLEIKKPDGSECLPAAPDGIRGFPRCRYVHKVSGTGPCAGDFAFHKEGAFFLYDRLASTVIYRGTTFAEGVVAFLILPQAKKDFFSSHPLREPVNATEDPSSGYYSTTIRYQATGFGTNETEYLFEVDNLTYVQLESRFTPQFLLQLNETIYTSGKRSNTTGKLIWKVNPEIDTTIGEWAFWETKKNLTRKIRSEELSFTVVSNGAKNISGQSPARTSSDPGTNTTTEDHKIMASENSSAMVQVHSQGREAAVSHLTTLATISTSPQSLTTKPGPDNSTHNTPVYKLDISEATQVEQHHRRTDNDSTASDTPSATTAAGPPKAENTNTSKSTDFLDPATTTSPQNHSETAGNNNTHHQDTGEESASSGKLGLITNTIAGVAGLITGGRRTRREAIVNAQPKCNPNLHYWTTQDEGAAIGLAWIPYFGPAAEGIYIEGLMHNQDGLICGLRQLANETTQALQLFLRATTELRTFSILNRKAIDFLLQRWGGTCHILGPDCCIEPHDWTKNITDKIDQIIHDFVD
The experiment in a line: ELISA on coated GP.

The target of assay [5] is T4, EBOV GP on pseudotyped lentiviral vector (Ebola (Zaire) virus (EBOV), UniProt Q05320 33-676).
T4 sequence: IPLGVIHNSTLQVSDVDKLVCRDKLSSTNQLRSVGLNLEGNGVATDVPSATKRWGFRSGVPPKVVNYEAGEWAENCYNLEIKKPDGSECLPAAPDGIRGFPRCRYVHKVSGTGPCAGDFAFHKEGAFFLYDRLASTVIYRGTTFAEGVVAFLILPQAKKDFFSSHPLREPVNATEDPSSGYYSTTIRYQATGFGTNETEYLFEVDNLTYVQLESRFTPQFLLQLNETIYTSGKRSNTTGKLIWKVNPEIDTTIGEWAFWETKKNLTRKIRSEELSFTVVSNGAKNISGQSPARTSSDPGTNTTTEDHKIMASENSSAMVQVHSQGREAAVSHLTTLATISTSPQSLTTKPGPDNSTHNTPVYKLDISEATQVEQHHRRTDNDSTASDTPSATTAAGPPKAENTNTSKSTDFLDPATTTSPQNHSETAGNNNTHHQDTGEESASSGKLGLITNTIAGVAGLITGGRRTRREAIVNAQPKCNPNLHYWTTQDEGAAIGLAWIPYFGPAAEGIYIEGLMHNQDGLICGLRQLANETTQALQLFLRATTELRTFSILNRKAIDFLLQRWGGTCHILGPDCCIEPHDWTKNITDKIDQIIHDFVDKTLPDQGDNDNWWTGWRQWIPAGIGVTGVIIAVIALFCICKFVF
The experiment in a line: cell-based or functional assay.

Assay [6] addresses T1, SUDV GP on pseudotyped lentiviral vector. The experiment in a line: cell-based or functional assay. This is another data set of the same source.

Like-named read-outs stand apart in the source and are kept apart here. Some results are limits rather than exact numbers.

B1: antibody 523S (antibody, V domains shown)
VH: QVQLVQSGAELKKPGASVKVSCKASGYTFSDHYVHWVRQAPGQGLEWMGRINPNSGGTNYAQRFLGRVTMTRDASISTAYLDLSSLRSDDTAVYYCARSSSSWSGHYYYYMDVWGKGTTVTVSS
VL: QSVLTQPPSVSAAPGQRVTISCSGSTSNIASNFVSWYQQLPGTAPKLLIYDNHKRPSGIPDRFSGSKSGTSATLGITGLQTGDEADYYCGTWDSSLSAGVFGGGTKVTVLG
B1: the “IC50, microneutralization of GP-pseudotyped lentiviral vector on HEK293 cells” value (“IC50, microneutralization” below) in assay [1] turned out to be 0.108 µg/mL. The same molecule returned an EC50 in assay [2] of 0.371 µg/mL.

B2: antibody 314L (antibody, V domains shown)
VH: EERLVESGGGLVQPGGSLRLSCAASGFTFGDYAMHWVRQVPGKSLEWLSGISWSGYTTYSADSVKGRFTISRDNAKNSLYLQMNRLRPEDTGLYYCVTLIGAIGIKDSLDVWGRGVLVTVSS
VL: EVVFTQPHSVSGSPGQMVTISCTRSSGTIDNSYVYWHQQRPGSAPTTVIYNDDQRPSGVPDRFSGSIDSSSNSASLTISGLKSEDEADYYCQSYDSSGWVFGGGTRLTVL
With B2, the EC50 in assay [3] turned out to be 1.05 µg/mL; in assay [4], 1.73 µg/mL.

B3: antibody 232L (antibody, V domains shown)
VH: KSQLVESGGGLVQPGGSLRLSCAASGFTFDAYAMHWVRQAPGEGLEWVTAISWSGSSTYYADSVKGRFTFSRDNAKNSLYLEMNSLRADDTAFYYCVKGGVYNWFDVWGPGVLVTVSS
VL: QSVLTQPPSVSGAPGQRVTISCTGSRSNIGGYYVSWYQQFPGTTPKLLIYQDNKRPSGVSDRFSGSKSGTSASLTITGLQTEDEADYYCLSYDSSLNGWVFGGGTRLTVL
In the case of B3, the results for the EC50 in assay [3] and in assay [4] were 0.09 µg/mL and 0.08 µg/mL, respectively. Moreover, the “IC50, microneutralization” value in assay [5] and in assay [6] was over 10 µg/mL throughout.

B4: antibody 206L (antibody, V domains shown)
VH: EVQLVESGGGVVQPGGSLRLSCAASGFTFDDYAMHWVRQAPGKGLEWVSGISWSGGNTYYADSVKGRFTVSRENAKNSLYLQMNRLRAEDTAFYNCARTSQGGAVVFSAPNYWGQGVLVTVSS
VL: QSVLTQAPSVSGAPGQRVTISCTGSSSNIGGYYVQWYQQLPGRAPKLLIYENNKRPSGVSDRFSGSRSASSASLTITGLQSEDEADYYCQSYDSRLNGYIFGGGTRLTVL
Turning to B4, the EC50 is 2.58 µg/mL in assay [3] and 0.001 µg/mL in assay [4]. In addition, the “IC50, microneutralization” value in assay [5] and in assay [6] was over 10 µg/mL throughout.

B5: antibody 191L (antibody, V domains shown)
VH: EVQLVESGGGLVQPGGSLRLSCAASGFTFSSYGIHWVRQAPGKGLEWVAIISYDGNKKFHADSVKDRFTISRDNSKNMLYLQMNNLKLEDTAVYYCARAYDSGYFAGSVFYYWGQGVLVTVSS
VL: EVVFTQPHSVSGSPGQTVTISCTRSSGSIDSEYVQWYQQRPGNAPTTVIYKDNQRPSGVPDRFSGSIDSSSNSASLAISGLKSEDEADYYCQSADGNYHPVFGEGTRLTVL
B5: the EC50 was 0.02 µg/mL in assay [3] and 0.01 µg/mL in assay [4]. In addition, the “IC50, microneutralization” value in assay [5] and in assay [6] was over 10 µg/mL in each case.

B6: antibody 310L (antibody, V domains shown)
VH: EMQLVESGGGLVQPGGSLRLSCAASGFTFDAYAMHWVRQRPGKGLEWISGIIWSGRTTYYADSVKGRFTFSRDNSKNSLYLEMNSLKPEDTALYYCAKDSWNYGVYNSLDVWGRGILVTVSS
VL: QSVLTQPPSVSGAPGQRVTISCTGSSSNVGPHYVSWYQHLPGTTPKLLIFQDNKRPSGVSDRFSGSKSASSASLTITGLQTEDEADYYCLSYDSSLNVYIFGSGTRLTVL
On to B6, for which the values for the EC50 in assay [3] and in assay [4] were 0.04 µg/mL and 0.01 µg/mL, respectively. Besides, the “IC50, microneutralization” value in assay [5] and in assay [6] was over 10 µg/mL each time.

B7: antibody 315L (antibody, V domains shown)
VH: QVQLQESGPGLVKPSETLSLTCTVSGGSITGNYWTWVRQPPGKGLQYIGRFDAGGKTYYNPPLKSRVSILGDKSKNQVSLNLTSVTVADTGVYYCAREQWGQLLSGSFDVWGRGVLVTVSS
VL: SYELTQPPSVSVSPGQTARITCSGDALPDYYAHWYQQKSGQAPMLVIYKDTERPSGIPERFSGSSSGTTVSLTISGVQAEDEADYYCQSGDSSGNHWVFGGGTRLTVL
For the molecule B7, the EC50 was 0.01 µg/mL in assay [3] and 1.8 µg/mL in assay [4]. Also, the “IC50, microneutralization” value in assay [6] was over 10 µg/mL.

B8: antibody 231L (antibody, V domains shown)
VH: EVQLVESGGGLVQPGGSLRLSCAASAFTFDDYAMHWVRQAPGKGLEWVSGITWSGLSTYYADSVKGRFTISRDNAKNSLYLQMNSLRVEDTALYYCAKSGNNSPFSGLDSWGQGAVVTVSS
VL: QSVLTQPPSVSGAPGQRVTVSCTGSSSNIGAGSYVQWYQQLPGTAPKLLIYENNKRPSGVSDRFSGSKSGTSASLTITGLQSEDEADYYCQSYDSSLNAYIFGAGTRLTVL
As for B8, the EC50 in assay [3] was 0.4 µg/mL; in assay [4], 0.002 µg/mL. Further, the “IC50, microneutralization” value in assay [5] and in assay [6] was over 10 µg/mL throughout.
